The source of these data is patent US11884740.

The target in assay [1] is C1q Receptor in the complement system (rabbit serum as the source of complement) (rabbit). The assay can be described thus: cell-based or functional assay.
Assay [2] concerns the target FcγIIIA Receptor on the effector cells (human) (UniProt P08637). The assay can be described thus: cell-based or functional assay.

Chain of FcγIIIA Receptor on the effector cells (human) (P08637 17-254): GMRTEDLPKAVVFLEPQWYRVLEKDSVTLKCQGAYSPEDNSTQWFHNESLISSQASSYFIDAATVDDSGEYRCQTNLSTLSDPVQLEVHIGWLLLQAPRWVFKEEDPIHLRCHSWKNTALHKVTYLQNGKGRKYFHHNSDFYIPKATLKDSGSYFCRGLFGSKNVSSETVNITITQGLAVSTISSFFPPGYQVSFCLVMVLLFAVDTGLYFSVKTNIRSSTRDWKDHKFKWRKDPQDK

As for OCREVUS (ocrelizumab) (antibody), the EC50 (CDC, Jeko-1 cells, rabbit complement) in assay [1] is 1.21 µg/mL. In assay [2], this substance registered an EC50 (ADCC, Raji targets, KILR CD16a effector cells) of 0.0608 ng/mL.

As to RITUXAN (rituximab) (antibody), in assay [1], the EC50 (CDC, Jeko-1 cells, rabbit complement) turned out to be 0.245 µg/mL. Moreover, in assay [2], the EC50 (ADCC, Raji targets, KILR CD16a effector cells) was 5.46 ng/mL and the EC50 of ADCC assay Using Primary NK Cells (Raji targets, LDH release) amounted to 1390 µg/mL.

In assay [2], GAZYVA (obinutuzumab) (antibody) displayed an EC50 (ADCC, Raji targets, KILR CD16a effector cells) of 0.00658 ng/mL and an EC50 of ADCC assay Using Primary NK Cells (Raji targets, LDH release) of 19 µg/mL.

In the case of ARZERRA (ofatumumab) (antibody), in assay [1], the EC50 (CDC, Jeko-1 cells, rabbit complement) was determined as 0.353 µg/mL. In assay [2], this substance yielded an EC50 (ADCC, Raji targets, KILR CD16a effector cells) of 0.0741 ng/mL and an EC50 of ADCC assay Using Primary NK Cells (Raji targets, LDH release) of 500 µg/mL.
